The record followed here is paper PMC5715081, “Purification and functional comparison of nine human Aquaporins produced in Saccharomyces cerevisiae for the purpose of biophysical characterization” (Scientific Reports, 2017).

B1: human AQP2-TEV-GFP-His10 fusion (natural protein, UniProt P41181 1-271, looked up)
chain: MWELRSIAFSRAVFAEFLATLLFVFFGLGSALNWPQALPSVLQIAMAFGLGIGTLVQALGHISGAHINPAVTVACLVGCHVSVLRAAFYVAAQLLGAVAGAALLHEITPADIRGDLAVNALSNSTTAGQAVTVELFLTLQLVLCIFASTDERRGENPGTPALSIGFSVALGHLLGIHYTGCSMNPARSLAPAVVTGKFDDHWVFWIGPLVGAILGSLLYNYVLFPPAKSLSERLAVLKGLEPDTDWEEREVRRRQSVELHSPQSLPRGTKA
notes: Aquaporin 2, human, cDNA codon optimized for S. cerevisiae; primers run from the start codon to the last codon; also called AQP2-GFP; APQ2-GFP; not shown: TEV cleavage site, C-terminal, kept; yeGFP, C-terminal, kept; His10, C-terminal, kept
B2: human AQP6-TEV-GFP-His10 fusion (natural protein, UniProt Q13520 1-282, looked up)
chain: MDAVEPGGRGWASMLACRLWKAISRALFAEFLATGLYVFFGVGSVMRWPTALPSVLQIAITFNLVTAMAVQVTWKASGAHANPAVTLAFLVGSHISLPRAVAYVAAQLVGATVGAALLYGVMPGDIRETLGINVVRNSVSTGQAVAVELLLTLQLVLCVFASTDSRQTSGSPATMIGISVALGHLIGIHFTGCSMNPARSFGPAIIIGKFTVHWVFWVGPLMGALLASLIYNFVLFPDTKTLAQRLAILTGTVEVGTGAGAGAEPLKKESQPGSGAVEMESV
notes: Aquaporin 6, human, cDNA codon optimized for S. cerevisiae; primers run from the start codon to the last codon; also called AQP6-GFP; Aquaporin 6; not shown: TEV cleavage site, C-terminal, kept; yeGFP, C-terminal, kept; His10, C-terminal, kept
B3: human AQP9-TEV-GFP-His10 fusion (natural protein, UniProt O43315 1-295, looked up)
chain: MQPEGAEKGKSFKQRLVLKSSLAKETLSEFLGTFILIVLGCGCVAQAILSRGRFGGVITINVGFSMAVAMAIYVAGGVSGGHINPAVSLAMCLFGRMKWFKLPFYVGAQFLGAFVGAATVFGIYYDGLMSFAGGKLLIVGENATAHIFATYPAPYLSLANAFADQVVATMILLIIVFAIFDSRNLGAPRGLEPIAIGLLIIVIASSLGLNSGCAMNPARDLSPRLFTALAGWGFEVFRAGNNFWWIPVVGPLVGAVIGGLIYVLVIEIHHPEPDSVFKTEQSEDKPEKYELSVIM
notes: Aquaporin 9, human, cDNA codon optimized for S. cerevisiae; primers run from the start codon to the last codon; also called AQP9-GFP; Aquaporin 9; not shown: TEV cleavage site, C-terminal, kept; yeGFP, C-terminal, kept; His10, C-terminal, kept

The series concerns the molecule itself. Nature of the series: SDS-PAGE (SDS-resistant oligomers); peak fractions of Ni-affinity purified, detergent solubilised AQP-TEV-GFP-His10 fusions separated by SDS-PAGE; in-gel fluorescence and Coomassie staining.
With B1, the binding result was “binds”.
For B2 the value was “binds”; for B3, “binds”.
